Laboratory results: patent US9493781B2, “Synthetic brassica-derived chloroplast transit peptides” (DOW AGROSCIENCES LLC, priority 2012, dated 2016)

Tested on: Arabidopsis
Test: dgt-28, dgt-32, dgt-33, dgt-3, dgt-7 transformed Arabidopsis (T1, T2, T3) response to postemergence glyphosate, % visual injury
Type: in vivo, Arabidopsis thaliana
Settings: 14 days after application
Excerpt: Transgenic T1 Arabidopsis plants containing the dgt-28 transgene were sprayed with differing rates of glyphosate. Elevated rates were applied in this study to determine the relative levels of resistance (105, 420, 1,680 or 3,360 g ae/ha). A typical 1× usage rate of glyphosate that will control non-transformed Arabidopsis is 420 g ae/ha. […] The T1 Arabidopsis plants that were used in this study were variable copy number for the dgt-28 transgene. The low copy dgt-28 T1 Arabidopsis plants were self-pollinated and used to produce T2 plants.
Results of Glyphosate Selection of Transformed dgt-28 Arabidopsis Plants. The Arabidopsis T1 transformants were first selected from the background of untransformed seed using a glufosinate selection scheme. Three flats or 30,000 seed were analyzed for each T1 construct. The T1 plants selected above were molecularly characterized and representative plants with variable copy number were subsequently transplanted to individual pots and sprayed with various rates of commercial glyphosate as previously described. The response of these plants is presented in terms of % visual injury 2 weeks after treatment (WAT). […] An arithmetic mean and standard deviation is presented for each construct used for Arabidopsis transformation. The range in individual response is also indicated in the last column for each rate and transformation. Wild-type, non-transformed Arabidopsis (c.v. Columbia) served as a glyphosate sensitive control.
T2Arabidopsis Data. The second generation plants (T2) of selected T1 Arabidopsis events which contained low copy numbers of the dgt-28 transgene were further characterized for glyphosate tolerance. Glyphosate was applied as described previously. The response of the plants is presented in terms of % visual injury 2 weeks after treatment (WAT). […] An arithmetic mean and standard deviation are presented for each construct used for Arabidopsis transformation. The range in individual response is also indicated in the last column for each rate and transformation. Wild-type, non-transformed Arabidopsis (cv. Columbia) served as a glyphosate sensitive control. In the T2 generation hemizygous and homozygous plants were available for testing for each event and therefore were included for each rate of glyphosate tested. Hemizygous plants contain two different alleles at a locus as compared to homozygous plants which contain the same two alleles at a locus. Variability of response to glyphosate is expected in the T2 generation as a result of the difference in gene dosage for hemizygous as compared to homozygous plants. The variability in response to glyphosate is reflected in the standard deviation and range of response.
T3 Arabidopsis Data. The third generation plants (T3) of selected T2 Arabidopsis events which contained low copy numbers of the dgt-28 transgene were further characterized for glyphosate tolerance. […] Glyphosate was applied as described previously. The response of the plants is presented in terms of % visual injury 2 weeks after treatment (WAT). […] An arithmetic mean and standard deviation are presented for each construct used for Arabidopsis transformation. The range in individual response is also indicated in the last column for each rate and transformation. Wild-type, non-transformed Arabidopsis (cv. Columbia) served as a glyphosate-sensitive control.

[1] = Table 8, T1 Arabidopsis, 105 g ae/ha glyphosate
[2] = Table 8, T1 Arabidopsis, 420 g ae/ha glyphosate
[3] = Table 8, T1 Arabidopsis, 1680 g ae/ha glyphosate
[4] = Table 8, T1 Arabidopsis, 3360 g ae/ha glyphosate
[5] = Table 10, T1 Arabidopsis, 1,680 g ae/ha glyphosate

B1: pDAB107527: TraP4 v2 - dgt-28 v5: binary construct TraP4 v2:dgt-28 v5 (SEQ ID NO:32) (nucleic acid)
DNA: ATGCTTGCTAGACAAGGTGGAAGTCTGAGAGCTTCTCAATGCAACGCTGGACTTGCTAGAAGAGTTGAAGTTGGTGCTCTTGTTGTTCCTAGACCTATCTCTGTTAACGACGTTGTTCCTCACGTTTACTCTGCTCCACTTTCTGTTGCTAGAAGGTCTTGCTCTAAGTCCTCCATTAGGTCCACTAGAAGGCTTCAAACTACTGTGTGCTCTGCTGCAAGAGGGATGCCAGCCTTGTCTTTACCTGGATCAAAGAGTATCACAGCTAGGGCACTCTTTCTTGCTGCTGCTGCTGATGGGGTTACTACTTTGGTGAGGCCATTGAGAAGTGACGACACAGAAGGATTCGCTGAGGGGTTAGTTCGTTTAGGCTATCGTGTAGGGAGGACACCCGATACTTGGCAAGTCGATGGCAGACCACAAGGACCAGCAGTGGCTGAGGCTGACGTCTACTGTAGAGACGGAGCAACCACCGCTAGATTCTTGCCAACCTTAGCAGCTGCTGGTCACGGAACATACAGATTTGATGCTTCACCACAGATGAGGAGACGTCCTCTTTTGCCCTTAAGCAGAGCCTTGAGGGATTTGGGTGTCGATCTTAGACACGAAGAAGCTGAAGGTCATCACCCTCTGACTGTCCGTGCTGCTGGGGTTGAAGGAGGAGAGGTTACTTTGGATGCTGGTCAGTCAAGTCAGTATCTCACTGCCTTGTTGCTCCTTGGTCCCCTTACAAGACAAGGACTGAGGATAAGGGTTACTGATTTGGTGTCAGCACCATACGTGGAGATTACGCTTGCAATGATGAGGGCTTTCGGAGTTGAAGTGGCAAGGGAGGGAGATGTGTTCGTTGTTCCACCTGGTGGATATCGTGCAACTACGTATGCTATAGAACCCGACGCAAGTACTGCTTCTTACTTCTTCGCAGCTGCTGCTTTGACTCCTGGAGCTGAAGTGACTGTACCTGGGTTAGGCACGGGAGCACTTCAAGGAGATTTGGGATTTGTAGATGTCTTAAGGAGAATGGGAGCCGAGGTGTCCGTAGGAGCTGATGCAACCACTGTTAGAGGAACTGGTGAATTGCGTGGCCTTACAGCCAACATGAGAGACATAAGTGATACGATGCCGACCCTCGCTGCAATAGCACCCTTTGCTAGTGCTCCAGTTAGAATCGAGGATGTTGCCAACACTCGTGTCAAAGAATGTGACAGACTTGAGGCTTGTGCAGAGAACCTTAGGAGGTTGGGAGTAAGGGTTGCAACGGGTCCGGACTGGATTGAGATACACCCTGGTCCAGCTACTGGTGCTCAAGTCACAAGCTATGGTGATCACAGAATTGTGATGTCATTTGCAGTGACTGGACTTCGTGTGCCTGGGATCAGCTTCGACGACCCTGGCTGTGTTCGTAAGACTTTTCCTGGGTTTCACGAGGCTTTCGCAGAATTGAGGCGTGGCATTGGGAGCTGA
modifications: In-frame fusion of dgt-28 v5 and TraP4 v2
[1]
  % Injury Ave: 3.8%
  % Injury Range (%): 0-15%
  No. plants with 20-40% injury: 0
  No. plants with <20% injury: 4
  No. plants with >40% injury: 0
[2]
  % Injury Ave: 28.8%
  % Injury Range (%): 0-65%
  No. plants with 20-40% injury: 1
  No. plants with <20% injury: 2
  No. plants with >40% injury: 1
[3]
  % Injury Ave: 55.0%
  % Injury Range (%): 35-85%
  No. plants with 20-40% injury: 2
  No. plants with <20% injury: 0
  No. plants with >40% injury: 2
[4]
  % Injury Ave: 43.8%
  % Injury Range (%): 30-70%
  No. plants with 20-40% injury: 2
  No. plants with <20% injury: 0
  No. plants with >40% injury: 2
[5]
  % Injury Ave: 55.0%
  % Injury Range (%): 35-85%
  No. plants with 20-40% injury: 2
  No. plants with <20% injury: 0
  No. plants with >40% injury: 2
